Measurements taken from paper PMC3496063 (Structure (London, England : 1993), 2012).

Target: the molecule itself
Assay: SEC-MALS

B1: His6-Plk4 PB1-PB2 (domain or fragment, D. melanogaster, UniProt O97143 382-602, looked up)
chain: DRISVPPLNTKRLLPTRYKTKNAIMSILRNGEVVLEFLKFRPTYNEDRINDICRISDDGQRIIIYQPDPGRGLPVREQPPDLQIPSGDCVYNYDNLPSKHWKKYIYGARFVGLVKSKTPKVTYFSTLGKCQLMETMTDFEIRFYSGAKLLKTPSEGLKVYDRNGMLLSDYSCSESRSLIEHGNECFTHCVNISNALEVAQTKDNSCFPVTIGRRPITDVQP
  stoichiometry N: 2
